Data taken from the supplement of paper PMC9112550, “Optimization of the antimicrobial peptide Bac7 by deep mutational scanning” (BMC Biology, 2022).

system: Escherichia coli TOP10; test: shrunken log2 fold change of peptide-encoding DNA abundance (4.5 h post-induction vs induction); higher = less antimicrobial activity (less host growth inhibition); details: time post-induction: 4.5 h; library: site-saturation at positions 5, 18, 19, 20
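Also: peptides expressed intracellularly from a pBAD plasmid library in pooled LB shake-flask culture, induced with 0.3% L-arabinose, DNA abundance read by NGS, three biological replicates, DESeq2 with apeglm shrinkage.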

Sequence	shrunken log2 fold change
RRIRFRPPRLPRPRPRPLYMPRP	-0.921
RRIRCRPPRLPRPRPRPWQQPRP	-0.000303
RRIRYRPPRLPRPRPRPLVSPRP	-0.113
RRIRARPPRLPRPRPRPPESPRP	1.02
RRIRMRPPRLPRPRPRPYDFPRP	-0.00149
RRIRVRPPRLPRPRPRPWYSPRP	-0.183
RRIRPRPPRLPRPRPRPKSPPRP	-0.12
RRIRWRPPRLPRPRPRPKITPRP	0.0282
RRIRGRPPRLPRPRPRPLNTPRP	0.0396
RRIRARPPRLPRPRPRPYFRPRP	-0.435
RRIRTRPPRLPRPRPRPVVWPRP	0.617
RRIRWRPPRLPRPRPRPQIVPRP	0.0235
RRIRYRPPRLPRPRPRPKTAPRP	-0.0087
RRIRSRPPRLPRPRPRPICPPRP	-0.055
RRIRQRPPRLPRPRPRPPLNPRP	0.633
RRIRHRPPRLPRPRPRPHAAPRP	0.292
RRIRNRPPRLPRPRPRPTRRPRP	0.805
RRIRCRPPRLPRPRPRPMMHPRP	-0.175
RRIRRRPPRLPRPRPRPHMNPRP	-0.315
RRIRYRPPRLPRPRPRPWWMPRP	-0.452
RRIRSRPPRLPRPRPRPIYPPRP	-0.766
RRIRTRPPRLPRPRPRPRNCPRP	-0.176
RRIRFRPPRLPRPRPRPCVSPRP	-0.0323
RRIRFRPPRLPRPRPRPWMYPRP	-0.673
RRIRQRPPRLPRPRPRPGPGPRP	0.507

Sequence	shrunken log2 fold change
RRIRFRPPRLPRPRPRPYGQPRP	-0.101
RRIRARPPRLPRPRPRPGIGPRP	0.524
RRIRFRPPRLPRPRPRPHRKPRP	0.306
RRIRRRPPRLPRPRPRPAHTPRP	0.448
RRIRLRPPRLPRPRPRPIIFPRP	-0.288
RRIRLRPPRLPRPRPRPRFMPRP	-0.244
RRIRQRPPRLPRPRPRPTNWPRP	0.146
RRIRFRPPRLPRPRPRPCRKPRP	0.0312
RRIRDRPPRLPRPRPRPHCIPRP	-0.00742
RRIRCRPPRLPRPRPRPYKQPRP	-0.211
RRIRMRPPRLPRPRPRPMMAPRP	1.8
RRIRNRPPRLPRPRPRPPPWPRP	0.591
RRIRDRPPRLPRPRPRPQHEPRP	-0.00197
RRIRDRPPRLPRPRPRPLESPRP	0.258
RRIRTRPPRLPRPRPRPKMRPRP	0.0419
RRIRLRPPRLPRPRPRPHIFPRP	-0.747
RRIRNRPPRLPRPRPRPPGFPRP	1.54
RRIRYRPPRLPRPRPRPMLTPRP	-0.0378
RRIRYRPPRLPRPRPRPNNIPRP	-1.24
RRIRMRPPRLPRPRPRPFGIPRP	0.0278
RRIRCRPPRLPRPRPRPIMQPRP	-0.193
RRIRERPPRLPRPRPRPVQHPRP	-0.402
RRIRPRPPRLPRPRPRPHPAPRP	0.217
RRIRVRPPRLPRPRPRPRAHPRP	0.00164
RRIRHRPPRLPRPRPRPHIQPRP	-0.701

Sequence	shrunken log2 fold change
RRIRDRPPRLPRPRPRPLETPRP	0.73
RRIRFRPPRLPRPRPRPHEYPRP	-0.264
RRIRGRPPRLPRPRPRPGTHPRP	0.508
RRIRIRPPRLPRPRPRPDEVPRP	-0.0316
RRIRSRPPRLPRPRPRPMQVPRP	-0.064
RRIRDRPPRLPRPRPRPVYGPRP	-0.322
RRIRPRPPRLPRPRPRPSFQPRP	0.0876
RRIRSRPPRLPRPRPRPMTWPRP	-0.0238
RRIRPRPPRLPRPRPRPNYIPRP	-0.739
RRIRERPPRLPRPRPRPASHPRP	-0.34
RRIRSRPPRLPRPRPRPMTPPRP	0.13
RRIRPRPPRLPRPRPRPTWDPRP	0.42
RRIRWRPPRLPRPRPRPISYPRP	-0.0222
RRIRYRPPRLPRPRPRPSHHPRP	-1.2
RRIRSRPPRLPRPRPRPHGIPRP	-0.273
RRIRWRPPRLPRPRPRPGPGPRP	0.899
RRIRLRPPRLPRPRPRPSQTPRP	-0.217
RRIRLRPPRLPRPRPRPQSRPRP	-0.377
RRIRCRPPRLPRPRPRPGNWPRP	0.0422
RRIRRRPPRLPRPRPRPYDKPRP	-0.213
RRIRYRPPRLPRPRPRPHFLPRP	-0.13
RRIRDRPPRLPRPRPRPHLMPRP	-0.283
RRIRARPPRLPRPRPRPKDEPRP	0.687
RRIRDRPPRLPRPRPRPTGNPRP	0.195
RRIRKRPPRLPRPRPRPTGSPRP	0.423
